Results on three molecules are retold here after US11674959B2, “Methods for identifying and preparing pharmaceutical agents for activating Tie1 and/or Tie2 receptors” (The Johns Hopkins University, priority 2017, dated 2023).

One test deals with MEC monolayers. Put plainly: FITC Transwell permeability assay. It is filed as cell-based, human. The note with it: single agent alone; FITC-Dextran 40 kDa, three hours. Here is the method:
The integrity of these junctions is also important for the regulation of monolayer permeability by controlling the size of intercellular openings. The effect of the AXT107 on EC permeability was further investigated by the transendothelial diffusion of FITC-labeled dextran across MEC monolayers seeded onto permeable Transwell® substrates.
(§1) Human dermal microvascular endothelial cells (Lonza) were maintained at 37° C. and 5% CO2 in EBM-2MV medium (Lonza) and used between passages two through seven. Where applicable, cells were serum starved in EBM-2 medium (Lonza) with no supplements. For FITC-Dextran permeability assays phenol red-free media were used to avoid auto-fluorescence. AXT107 were manufactured at New England Peptide by […], lyophilized, and dissolved in 100% DMSO.
Transwell, twenty-four-well inserts (Corning) were coated with 7.5 μg/cm^2 FN1 for two hours at 37° C., aspirated, and then dried for thirty minutes at room temperature. Wells were then seeded with 7.5×10^4 MECs in 100 μl of EBM-2 media (without phenol red) and allowed to settle for thirty minutes at room temperature. 1 ml of EGM-2 media was then added to the bottom chamber and an additional 200 μl to the top chamber. The plate was incubated for twenty-four hours at 37° C. after which the media was aspirated and an additional 7.5×10^4 MECs were plated in each well as described above. After forty-eight hours at 37° C., the media was aspirated from both chambers and the cells were washed twice in dPBS containing Ca^2+ and Mg^2+, once with EBM-2 media (without phenol red) and serum starved in EBM-2 media applied to both chambers for two hours at 37° C. After this incubation, 100 μM AXT107 or an equivalent amount of DMSO vehicle was added and incubated for an additional ninety minutes. In the top chamber, the cells were then treated with 200 ng/ml Ang2, 100 ng/ml VEGFA, both, or PBS control and in the bottom chamber, the cells were then treated with 25 μg/ml FITC-Dextran (40 kDa MW). AXT107 was also added in both chambers to maintain a concentration of 100 μM. After three hours, 10 μl was removed from the top chamber of each well and mixed with 90 μl of water in a clear bottom, 96-well plate. Fluorescence values for each sample were calculated using a Perkin Elmer plate reader.

The next test concerns Tie2. The experiment in a line: Western blot of MEC lysates, Ang1/2 signaling: Tie2 phosphorylation. It is filed as cell-based, human. The note with it: ligand alone, no AXT107. The procedure: To investigate the effects of the integrin inhibitor AXT107 on Tie2 signaling, confluent monolayers of microvascular endothelial cells (MECs) on fibronectin-coated dishes were treated with various concentrations of AXT107 followed by exposure to the Tie2 ligands Ang1 or Ang2.
as §1
For Ang1/2 signaling investigations, cell culture dishes (10 cm diameter) were coated with 5 μg/ml fibronectin (FN1; Sigma-Aldrich, St. Louis, Mo.) for two hours at 37° C. The FN1 solution was then removed by aspiration and 5×10^6 microvascular endothelial cells (MECs; Lonza, Walkersville, Md.) were plated in EGM-2MV media (Lonza) and cultured for forty-eight hours at 37° C. The cells were then serum starved for sixteen hours in serum-free EGM-2 base media (Lonza). AXT107 (0-100 μM, as indicated) was subsequently added to each culture and incubated for seventy-five minutes at 37° C. The cultures were then treated with 1 mM sodium vanadate (New England Biolabs, Ipswich, Mass.) for fifteen minutes to enhance the phospho-Tie2 signal followed by stimulation with 200 ng/ml angiopoietin (R&D Systems, Minneapolis, Minn.) for an additional fifteen minutes. The cells were then transferred to ice, washed twice with ice cold Dulbecco's phosphate-buffered saline (dPBS) containing Ca^2+ and Mg^2+, and collected by scraping in 500 μl of 1× Blue Loading Buffer (Cell Signaling, Danvers, Mass.). Lysate samples were then sonicated, boiled, and resolved by SDS-PAGE. Specific proteins were identified by Western blot, using the following primary antibodies: Cell Signaling—phospho-Tie2 (Y992) (Cat #: 4221), Tie2 (Cat #: 7403), phospho-Stat3 (Y705) (Cat #: 4113), Stat3 (Cat #: 4904), phospho-Akt (S473) (Cat #: 4058), Akt (Cat #: 9272), phospho-p44/42 MAPK (T202/Y204) (Cat #: 4370), p44/42 MAPK (Cat #: 4695); BD Transduction Laboratories—β1 integrin (Cat #: 610467); Millipore—α5 integrin (Cat #: AB1928) and detected with HRP-conjugated goat anti-rabbit and sheep anti-mouse secondary antibodies (GE healthcare).
On the technique in general: Immunoblotting shows a protein as a band on a membrane.

VEGF [reference compound]: the “FITC-dextran diffusion across the monolayer, agent alone” value in the test on MEC monolayers was “appeared to increase permeability (although non-significantly)”.

B1: Ang1: angiopoietin 1, Tie2 ligand (protein)
chain: SNQRRSPENSGRRYNRIQHGQCAYTFILPEHDGNCRESTTDQYNTNALQRDAPHVEPDFSSQKLQHLEHVMENYTQWLQKLENYIVENMKSEMAQIQQNAVQNHTATMLEIGTSLLSQTAEQTRKLTDVETQVLNQTSRLEIQLLENSLSTYKLEKQLLQQTNEILKIHEKNSLLEHKILEMEGKHKEELDTLKEEKENLQGLVTRQTYIIQELEKQLNRATTNNSVLQKQQLELMDTVHNLVNLCTKEGVLLKGGKREEEKPFRDCADVYQAGFNKSGIYTIYINNMPEPKKVFCNMDVNGGGWTVIQHREDGSLDFQRGWKEYKMGFGNPSGEYWLGNEFIFAITSQRQYMLRIELMDWEGNRAYSQYDRFHIGNEKQNYRLYLKGHTGTAGKQSSLILHGADFSTKDADNDNCMCKCALMLTGGWWFDACGPSNLNGMFYTAGQNHGKLNGIKWHYFKGPSYSLRSTTMMIRPLDF
In the case of B1, the “Tie2 phosphorylation by ligand alone” value in the test on Tie2 was “induced phosphorylation of Tie2”.

B2: Ang2: angiopoietin 2, Tie2 ligand (protein)
chain: YNNFRKSMDSIGKKQYQVQHGSCSYTFLLPEMDNCRSSSSPYVSNAVQRDAPLEYDDSVQRLQVLENIMENNTQWLMKLENYIQDNMKKEMVEIQQNAVQNQTAVMIEIGTNLLNQTAEQTRKLTDVEAQVLNQTTRLELQLLEHSLSTNKLEKQILDQTSEINKLQDKNSFLEKKVLAMEDKHIIQLQSIKEEKDQLQVLVSKQNSIIEELEKKIVTATVNNSVLQKQQHDLMETVNNLLTMMSTSNSAKDPTVAKEEQISFRDCAEVFKSGHTTNGIYTLTFPNSTEEIKAYCDMEAGGGGWTIIQRREDGSVDFQRTWKEYKVGFGNPSGEYWLGNEFVSQLTNQQRYVLKIHLKDWEGNEAYSLYEHFYLSSEELNYRIHLKGLTGTAGKISSISQPGNDFSTKDGDNDKCICKCSQMLTGGWWFDACGPSNLNGMYYPQRQNTNKFNGIKWYYWKGSGYSLKATTMMIRPADF
Regarding B2, the “Tie2 phosphorylation by ligand alone” value in the test with Tie2 is on record as “insignificant effects by itself”. In addition, the “FITC-dextran diffusion across the monolayer, agent alone” value in the test on MEC monolayers was “influenced FITC-dextran diffusion across the monolayer”.
